{"source": "patent US20190137501", "proteins": {"B1": {"name": "protein-tyrosine phosphatase 1b (PTP1b) (protein)", "chain": "MEMEKEFEQIDKSGSWAAIYQDIRHEASDFPCRVAKLPKNKNRNRYRDVSPFDHSRIKLHQEDNDYINASLIKMEEAQRSYILTQGPLPNTCGHFWEMVWEQKSRGVVMLNRVMEKGSLKCAQYWPQKEEKEMIFEDTNLKLTLISEDIKSYYTVRQLELENLTTQETREILHFHYTTWPDFGVPESPASFLNFLFKVRESGSLSPEHGPVVVHCSAGIGRSGTFCLADTCLLLMDKRKDPSSVDIKKVLLEMRKFRMGLIQTADQLRFSYLAVIEGAKFIMGDSSVQDQWKELSHEDLEPPPEHIPPPPRPPKRILEPHNGKCREFFPNHQWVKEETQEDKDCPIKEEKGSPLNAAPYGIESMSQDTEVRSRVVGGSLRGAQAASPAKGEPSLPEKDEDHALSYWKPFLVNMCVATVLTAGAYLCYRFLFNSNT"}}, "molecular_target": "epidermal growth factor receptor (EGFR)", "data": [{"protein": "B1", "values": [{"measurement": "EGFR Y1173 phosphorylation (semi-quantitative Western blot)", "value": "inhibition of PTP1b increased EGFR Y1173 phosphorylation in GFP control cells treated with 0.25 nM EGF"}]}]}
